Laboratory results published in the nanobody polyreactivity screen of Harvey et al. (2022).

Experiment: yeast display, Sf9 membrane polyspecificity reagent, FACS + sequencing; frameworks hold sequencing errors
In short: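 Synthetic nanobody libraries on Saccharomyces cerevisiae BJ5465 were galactose-induced for 36–48 hours, stained 1 hour at 4 °C with 10% biotinylated, detergent-solubilized Sf9 membrane reagent and enriched on streptavidin microbeads. FACS then separated cells into low and high (top ~1%) gates by anti-HA (expression) and streptavidin (reagent binding) fluorescence. Genes were colony-PCR amplified, MiSeq 2 × 250 sequenced and CDR-length filtered. A clone's polyreactivity label is that of its gate of origin.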

Row | Sequence | polyreactivity (PSR sort gate)
1 | QVQLVESGGGLVQAGGSLRLSCAASGFIFYGYTMGWYRQAPGKERELVAAITFSGGRTYYADSVKGRFTISRDNAKNTVYLQMNSLKPEDTAVYYCNARVVNYFRPRTGAREYDYWGQGTQVTVSS | high polyreactivity
2 | QVQLVESGGGLVQAGGSLRLSCAASGFIFYHNAMGWYRQAPGKERELVAAISSTGGSTHYADSVKGRFTISRDNAKNTVYLQMNSLKPEDTAVYYCNADPRRRWYDYWGQGTQVTVSS | high polyreactivity
3 | QVQLVESGGGLVQAGGSLRLSCAASGFIFYHNAMGWYRQAPGKERELVAAISYSGGSTYYADSVKGRFTISRVNAKNTVYLQMNSLKPEDTAVYFCATPQTRTYDYWGQGTQVTVSS | high polyreactivity
4 | QVQLVESGGGLVQAGGSLRLSCAASGFIFYINAMGWYRQAPGKERELVAAINWRTGSTYYADSVKGRFTISRDNAKNTVYLLMNSLKPEDTAVYYCAAYGYWRRADTEFDYWGQGTQVTVSS | low polyreactivity
5 | QVQLVESGGGLVQAGGSLRLSCAASGFIFYIYAMGWYRQAPGKERELVAAFTSGGSTYYADSVKGRFTISRDNAKNTVYLQMNSLKPEDTAVYYCAAESYYGYDYWGQGTQVTVSS | low polyreactivity
6 | QVQLVESGGGLVQAGGSLRLSCAASGFIFYKYAMGWYRQAPGKERELVAAITRSGGSTFYADSVKGRFTISRDNAKNTVYLQMNSLKPEDTAVYYCAADAIVQVTPRPRRYDYWGQGTQVTVSS | high polyreactivity
7 | QVQLVESGGGLVQAGGSLRLSCAASGFIFYKYGMGWYRQAPGKERELVAAINRRGGTTSYADSVKGRFTISRDNAKNTVYLQMNSLKPEDTAVYYCAASAPGGQDDYWGQGTQVTVSS | high polyreactivity
8 | QVQLVESGGGLVQAGGSLRLSCAASGFIFYKYVMAWYRQAPGKERELVAAINWSGGSTYYADSVKGRFTISRDNAKNTVYLQMNSLKPEDTAVYYCAALSQYRYDYWGQGTQVTVSS | high polyreactivity
9 | QVQLVESGGGLVQAGGSLRLSCAASGFIFYLNVMGWYRQAPGKERELVATITSGGSTNYADSVKGRFTISRDNAKNTVYLQMNSLKPEDTAVYYCAAEQVWYDWEYDYWGQGTQVTVSS | high polyreactivity
10 | QVQLVESGGGLVQAGGSLRLSCAASGFIFYPNAMGWYRQAPGKERELVAGISWSGTSTYYADSVKGRFTISRDNAKNTVYLQMNSLKPEDTAVYYCNRVFYHFDVDRYDYWGQGTQVTVSS | low polyreactivity
11 | QVQLVESGGGLVQAGGSLRLSCAASGFIFYPYAMGWYRQAPGKERELVAVITSGGRTYYADSVKGRFTISRDNAKNTVYLQMNSLKPEDTAVYYCAAQYIQAWRLFDYWGQGTQVTVSS | low polyreactivity
12 | QVQLVESGGGLVQAGGSLRLSCAASGFIFYPYAMGWYRQAPGKEREVVAVITSGGRTYYADSVKGRFTISRDNAKNTVYLQMNSLKPEDTAVYYCAARYGRIHWKANWPEYGYWGQGTQVTVSS | low polyreactivity
13 | QVQLVESGGGLVQAGGSLRLSCAASGFIFYQYAMGWYRQAPGKERELVAAISTRGGSTYYADSVKGRFTISRDNAKNTVYLQMNSLKPEDTAVYYCNVLKYLSPGTYDYDYWGQGTQVTVSS | high polyreactivity
14 | QVQLVESGGGLVQAGGSLRLSCAASGFIFYRKTMGWYRQAPGKERELDAAISVSGGSTNYADSVKGRFTISRDNAKNTVYLQMNSLKPEDTAVYYCAARVRDSLVYGGWDDYWGQGTQVTVSS | high polyreactivity
15 | QVQLVESGGGLVQAGGSLRLSCAASGFIFYRNAMGWYRQAPGKERELVAAISGSGGRTYYADSVKGRFTISRDNAKITVYLQMNSLNPEDTAVYYCNAGPLYRGEYDYWGQGTQVTVSS | high polyreactivity
16 | QVQLVESGGGLVQAGGSLRLSCAASGFIFYRNAMGWYRQAPGKERELVAAISVDGSTYYADSVKGRFTISRDNAKNTVYLQMNSQKPEDTAVYYCAAEYYSSYYQYVIYGYWGQGTQVTVSS | low polyreactivity
17 | QVQLVESGGGLVQAGGSLRLSCAASGFIFYRNTMGWYRQAPGKEREFVAAIRWRGGSTYYADSVKGRFTISRDNAKNTVYLQMNSLKPEDTAVYYCAADSRPVYSGFEYWGQGTQVTVSS | high polyreactivity
18 | QVQLVESGGGLVQAGGSLRLSCAASGFIFYRNTMGWYRQAPGKEREFVAAIRWRGGSTYYADSVKGRFTISRDNAKNTVYLQMNSLKPEDTAVYYCNALGKPTWYATTYDYWGQGTQVTVSS | high polyreactivity
19 | QVQLVESGGGLVQAGGSLRLSCAASGFIFYRNTMGWYRQAPGKESELVAAISRRGGNTYYADSVKGRFTISRDYAKNTVYLQMNSLKPEDTAVYYCNADGNAVYNRVSYDYWGQGTQVTVSS | high polyreactivity
20 | QVQLVESGGGLVQAGGSLRLSCAASGFIFYRYAMGWYRQAPGKERELVAAISRSGGTTYYADSVKGRFTISRDNAKNTVYLQMNSLKPEDTAVYYCNVKRGTIGGYYYWGQGTQVTVSS | high polyreactivity
21 | QVQLVESGGGLVQAGGSLRLSCAASGFIFYRYAMGWYRQAPGKERELVAAISSGGGRTYYADSVKGRFTISRDNAKNTVYLQMNSLKPEDTAVYYCAKGYFWSSYVSSRYGSWGQGTQVTVSS | high polyreactivity
22 | QVQLVESGGGLVQAGGSLRLSCAASGFIFYRYAMGWYRQAPGKERELVARISWNGGITYYADSVKGRFTISRDNAKNTVYLQMNILKPEDTAVYYCNKPDPYGLYTYEYWGQGTQVTVSS | low polyreactivity

Row | Sequence | polyreactivity (PSR sort gate)
23 | QVQLVESGGGLVQAGGSLRLSCAASGFIFYSNAMGWYRQAPGKERELVAAIRSTGSTSYADSVKGRFTISRDNAKNTVYLQMNILKPEDTAVYYCAKVRYWRGYDYWGQGTQVTVSS | high polyreactivity
24 | QVQLVESGGGLVQAGGSLRLSCAASGFIFYSNAMGWYRQSPGKERELVAGISRGGSTYYADSVKGRFTISRDNAKNTVYLQMNRLKPEDTAVYYCAAKISLGDDYWGQGTQVTVSS | low polyreactivity
25 | QVQLVESGGGLVQAGGSLRLSCAASGFIFYSSDMGWYRQSPGKERELVAAIDSRGVNTYYADSVKGRFTISRDNAKNTVYLQMNSLKPEDTAVYYCNVDAINWWDWEDFDYWGQGTQVTVSS | low polyreactivity
26 | QVQLVESGGGLVQAGGSLRLSCAASGFIFYSYALGWYRQAPGKEREFVASISGRTGSTYYADSVKGRFTISRDNAKNTVYLQMNSLKPEDTAVYYCNARIVHSFRYDYWGQGTQVTVSS | low polyreactivity
27 | QVQLVESGGGLVQAGGSLRLSCAASGFIFYTYAMGWYRQAPGKERELVAAISRGGRTNYADSVKGRFTISRDNAKNSVYLQMNSLKPEDTAVYYCASSYSHRYDYWGQGTQVTVSS | high polyreactivity
28 | QVQLVESGGGLVQAGGSLRLSCAASGFIFYYAMGWYRQAPGKERELVAGITESDGSTNYADSVKGRFTISRDNAKNTVYLQMNSLKTEVTAVYYCAKDASSLRFDYWGQGTQVTVSS | low polyreactivity
29 | QVQLVESGGGLVQAGGSLRLSCAASGFIFYYNAMGRYRQAPGKERELVATIRGSGGSTYYADSVKGRFTISRDNAKNTVYLQMNSLKPEDTAVYYCATTIYGLTSRLYYWGQGTQVTVSS | high polyreactivity
30 | QVQLVESGGGLVQAGGSLRLSCAASGFIFYYNAMGWYRQAPGKERELVAAISASGDRTYYADSVKGRFTISRDNAKNTVYLQMNSLKPEDTAVYYCAARSQGARYSSRRRFGDYWGQGTQVTVSS | high polyreactivity
31 | QVQLVESGGGLVQAGGSLRLSCAASGFIFYYNTMGWYRQATGKESELVDSITWSGDTTYYADSVKGRFTISRDNAKKTVYLQMNSLKPEDTAVYYCAAVHYYPYRRYDYWGQGTQVTVSS | low polyreactivity
32 | QVQLVESGGGLVQAGGSLRLSCAASGFIFYYYAMGWYRQAPAKERELVAVITSGGSTNYADSVKGRFTISRDNAKNTVYLQMNSLKPEDTAVYYCAARSRRRDDYWGQGTQVTVSS | high polyreactivity
33 | QVQLVESGGGLVQAGGSLRLSCAASGFIFYYYAMGWYRQAPGKERELFAAISKSGGSTYYADSVKGRFTISRDHAKNTVYLEMNSLKPEDTAVYYCAGVVTTWPYYGFGYWGQGTQVTVSS | high polyreactivity
34 | QVQLVESGGGLVQAGGSLRLSCAASGFIFYYYAMGWYRQAPGKERELVAAISVRGGRTYYADSVKGRFTISRDNAKNTVYLQMNSLKPEDTAVYYCAADLYNRGRGSSQSYRTGYDYWGQGTQVTVSS | high polyreactivity
35 | QVQLVESGGGLVQAGGSLRLSCAASGFIFYYYAMGWYRQAPGKERELVAAITSGGGTTYYADSVKGRFTISRDNAKNTVYLQMNSLKPEDTAVYYCNADSYYNSWFYYFDGFDGDYWGQGTQVTVSS | high polyreactivity
36 | QVQLVESGGGLVQAGGSLRLSCAASGFIFYYYTMGWYRQAPGKERELVAAISSSGGRTYYADSVKGRFTISRDNAKNTVYLQMNSLKPEDTAVYYCAALYRWNQFPYFKGGYWGQGTQVTVSS | high polyreactivity
37 | QVQLVESGGGLVQAGGSLRLSCAASGFIGWYRQAPGKERELVAAISWRGGRTYYADSVKGRFTISRDNAKNTVYLQMNSLKPEDTAVYYCNAVGNVWGYDSWGQGTQVTVSS | high polyreactivity
38 | QVQLVESGGGLVQAGGSLRLSCAASGFIIADYTMGWYRQAPGKERELVAAITRSGDSTYYADSVKGRFTISRDNAKNTVYLQMNSLKPEDTAVYYCNAVNDWYYAYYGVTSFRSYDYWGQGTQVTVSS | low polyreactivity
39 | QVQLVESGGGLVQAGGSLRLSCAASGFIIAFDNAMGWYRQAPGKERELVAAISSGTTTHYADSVKGRFTISRDNAKNTVYLQMNSLKPEDTAVYYCAADSVKQVRYGNVGHDYWGQGTQVTVSS | low polyreactivity
40 | QVQLVESGGGLVQAGGSLRLSCAASGFIIAGYAMGWYRQAHGKEMELVAAISSRGGSTYYADSVKGRFTISRDNAKNTFYLQMNSLKPEDTSVYYCARTTPTGRQYRRYDYWGQGTQVTESS | low polyreactivity
41 | QVQLVESGGGLVQAGGSLRLSCAASGFIIAYYAMGWDRQAPGKERELVAAINGGGGSRSYADSVKGRFTISRDNAKNTVYLQMNSLKPEDTAVFYCAADGSDDEENDYWGQGTQVTVSS | high polyreactivity
42 | QVQLVESGGGLVQAGGSLRLSCAASGFIIDGYAMGWYRQAPGKERELVAVISQRGSNTYYADSVKGRFTISRDNAKNTVYLQMNSLKPEDTAVYYCAARYKQGDSTGGRMNYWGQGTQVTVSS | high polyreactivity
43 | QVQLVESGGGLVQAGGSLRLSCAASGFIIDRNAMGWYRQAAGKERELVAAITSRGGSTYYADSVKGRFTISRDNAKNTVYLQMNSLKPEDTAVYYCNAGRRVSTYGYWGPGTQVTVSS | high polyreactivity
